Measured values taken from patent US20150045540A1 (published 2015).

T1: Placenta Growth Factor (PlGF), human (human, UniProt P49763 21-149)
T1 chain: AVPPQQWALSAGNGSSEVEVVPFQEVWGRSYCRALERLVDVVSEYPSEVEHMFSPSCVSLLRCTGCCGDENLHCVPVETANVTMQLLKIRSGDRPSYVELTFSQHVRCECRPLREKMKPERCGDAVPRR

B1: HC 10/SLC 9 (antibody)
chain 1: GQGTLVTVSSASTKGPSVFPQPVLHQPPAMSSALGTTIRLTCTLRNDHDIGVYSVYWYQQRPGHPPRFLLRYFSQSDKSQGPQVPPRFSGSKDVARNRGYLSISELQPEDEAMYYCAMGARSRCWPRGFQSKHNSVTHVFGSGTQLTVLSQPKATPSVTLFPPSSEELQANKATLVCLMNDFYPGILTVTWKADGTPITQGVEMTTPSKQSNNKYAASSYLSLTPEQWRSRRSYSCQVMHEGSTVEKTVAPAECS
chain 2: MSWAPVLLMLFVYCTGCGPQPVLHQPPAMSSALGTTIRLTCTLRNDHDIGVYSVYWYQQRPGHPPRFLLRYFSQSDKSQGPQVPPRFSGSKDVARNRGYLSISVTHVFGSGTQLTVLSQPKATPSVQVQLVQ
B2: HC 7/SLC 9 (antibody)
chain 1: GQGTLVTVSSASTKGPSQPVLHQPPAMSSALGTTIRLTCTLRNDHDIGVYSVYWYQQRPGHPPRFLLRYFSQSDKSQGPQVPPRFSGSKDVARNRGYLSISELQPEDEAMYYCAMGARSRCWPRGFQSKHNSVTHVFGSGTQLTVLSQPKATPSVTLFPPSSEELQANKATLVCLMNDFYPGILTVTWKADGTPITQGVEMTTPSKQSNNKYAASSYLSLTPEQWRSRRSYSCQVMHEGSTVEKTVAPAECS
chain 2: B1 chain 2
B3: HC 6/SLC 15 (antibody)
chain 1: GQGTLVTVSSASTKGPQPVLHQPPAMSSALGTTIRLTCTLRNDHDIGVYSVYWYQQRPGHPPRFLLRYFSQSDKSQGPQVPPRFSGSKDVARNRGYLSISELQPEDEAMYYCAMGARSRCWPRGFQSKHNSVTHVFGSGTQLTVLSQPKATPSVTLFPPSSEELQANKATLVCLMNDFYPGILTVTWKADGTPITQGVEMTTPSKQSNNKYAASSYLSLTPEQWRSRRSYSCQVMHEGSTVEKTVAPAECS
chain 2: MSWAPVLLMLFVYCTGCGPQPVLHQPPAMSSALGTTIRLTCTLRNDHDIGVYSVYWYQQRPGHPPRFLLRYFSQSDKSQGPQVPPRFSGSKDVARNRGYLSISVTHVFGSGTQLTVLSQPKATPSVTGGGGSQVQLVQ
B4: HC 2/SLC 3 (antibody)
chain 1: GQGTLVTVSSASQPVLHQPPAMSSALGTTIRLTCTLRNDHDIGVYSVYWYQQRPGHPPRFLLRYFSQSDKSQGPQVPPRFSGSKDVARNRGYLSISELQPEDEAMYYCAMGARSRCWPRGFQSKHNSVTHVFGSGTQLTVLSQPKATPSVTLFPPSSEELQANKATLVCLMNDFYPGILTVTWKADGTPITQGVEMTTPSKQSNNKYAASSYLSLTPEQWRSRRSYSCQVMHEGSTVEKTVAPAECS
chain 2: MSWAPVLLMLFVYCTGCGPQPVLHQPPAMSSALGTTIRLTCTLRNDHDIGVYSVYWYQQRPGHPPRFLLRYFSQSDKSQGPQVPPRFSGSKDVARNRGYLSISVTHVFGSGTQLTVLSQPQVQLVQ
B5: HC 4/SLC 7 (antibody)
chain 1: GQGTLVTVSSASTKQPVLHQPPAMSSALGTTIRLTCTLRNDHDIGVYSVYWYQQRPGHPPRFLLRYFSQSDKSQGPQVPPRFSGSKDVARNRGYLSISELQPEDEAMYYCAMGARSRCWPRGFQSKHNSVTHVFGSGTQLTVLSQPKATPSVTLFPPSSEELQANKATLVCLMNDFYPGILTVTWKADGTPITQGVEMTTPSKQSNNKYAASSYLSLTPEQWRSRRSYSCQVMHEGSTVEKTVAPAECS
chain 2: MSWAPVLLMLFVYCTGCGPQPVLHQPPAMSSALGTTIRLTCTLRNDHDIGVYSVYWYQQRPGHPPRFLLRYFSQSDKSQGPQVPPRFSGSKDVARNRGYLSISVTHVFGSGTQLTVLSQPKATPQVQLVQ
B6: HC 7/SLC 4 (antibody)
chain 1: B2 chain 1
chain 2: MSWAPVLLMLFVYCTGCGPQPVLHQPPAMSSALGTTIRLTCTLRNDHDIGVYSVYWYQQRPGHPPRFLLRYFSQSDKSQGPQVPPRFSGSKDVARNRGYLSISVTHVFGSGTQLTVLSQPKQVQLVQ

Biological target: T1, Placenta Growth Factor (PlGF), human
Test: ELISA

| EC50 [nM] | Binder |
| --- | --- |
| 0.039 | B1 |
| 0.057 | B2 |
| 0.046 | B3 |
| 0.046 | B4 |
| 0.161 | B5 |
| 0.204 | B6 |

Each binder was assayed against Hepatocyte Growth Factor (HGF), human (human, UniProt P14210 32-728) (assay: ELISA).
Sequence of Hepatocyte Growth Factor (HGF), human (P14210 32-728): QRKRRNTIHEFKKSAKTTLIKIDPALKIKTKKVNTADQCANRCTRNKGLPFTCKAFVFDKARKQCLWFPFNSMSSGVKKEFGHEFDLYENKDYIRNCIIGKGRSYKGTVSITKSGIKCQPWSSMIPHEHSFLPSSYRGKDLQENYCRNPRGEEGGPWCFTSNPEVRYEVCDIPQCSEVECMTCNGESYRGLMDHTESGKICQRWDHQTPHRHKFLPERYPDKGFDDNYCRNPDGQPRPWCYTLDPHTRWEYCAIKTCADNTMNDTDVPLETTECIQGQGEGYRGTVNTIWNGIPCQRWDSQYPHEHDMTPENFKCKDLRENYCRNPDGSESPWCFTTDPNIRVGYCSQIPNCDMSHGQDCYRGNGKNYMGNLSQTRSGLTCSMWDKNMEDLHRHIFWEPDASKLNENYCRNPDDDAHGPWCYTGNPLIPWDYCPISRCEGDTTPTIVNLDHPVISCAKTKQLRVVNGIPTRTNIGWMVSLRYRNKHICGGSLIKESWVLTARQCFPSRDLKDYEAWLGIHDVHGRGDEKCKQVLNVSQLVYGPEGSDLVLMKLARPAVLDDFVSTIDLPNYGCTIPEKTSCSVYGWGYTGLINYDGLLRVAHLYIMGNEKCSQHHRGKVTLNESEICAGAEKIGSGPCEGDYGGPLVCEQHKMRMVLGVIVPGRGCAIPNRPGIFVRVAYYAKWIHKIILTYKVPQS

| EC50 [nM] | Binder |
| --- | --- |
| 0.053 | B1 |
| 0.048 | B2 |
| 0.05 | B3 |
| 0.058 | B4 |
| 0.059 | B5 |
| 0.065 | B6 |
